The values below come from article PMC9262907, “Modulating mitofusins to control mitochondrial function and signaling” (Nature Communications, 2022).

Data set [1] concerns the target T1, MFN2-HR2 domain (residues 678–757) (human, UniProt O95140 678-757).
T1 chain: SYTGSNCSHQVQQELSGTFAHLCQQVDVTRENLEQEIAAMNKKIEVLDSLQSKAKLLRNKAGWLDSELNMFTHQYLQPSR
The experiment in a line: MST.

Data set [2] concerns the molecule itself. The experiment in a line: native gel or EMSA; BN-PAGE of digitonin lysates of mitochondria isolated from MEFs, without GTP; blot with anti-MFN2. In general terms: Mobility shift assays separate free from complexed probe on a gel.

Where no end group is shown, it is not given here.

B1: 398–418Gly peptide (peptide)
chain: QDRLKFIDKQLELLAQDYKLR
modifications: also: 'Gly' in name not defined
By Kd is commonly meant the equilibrium constant for the complex coming apart. Lower therefore signals a tighter complex. For the molecule B1, the Kd in data set [1] stood at 1500 nM.

B2: 367–384Gly peptide (peptide)
chain: QIAEAVRLIMDSLHMAAR
modifications: also: 'Gly' in name not defined
B2 registered a Kd in data set [1] of 3000 nM. This Kd is about 2-fold higher than that of the molecule before.

B3: mitofusin-2 (MFN2) of MEF mitochondria (natural protein, mouse (endogenous in MEFs), UniProt Q80U63 1-757, looked up)
chain: MSLLFSRCNSIVTVKKDKRHMAEVNASPLKHFVTAKKKINGIFEQLGAYIQESASFLEDTHRNTELDPVTTEEQVLDVKGYLSKVRGISEVLARRHMKVAFFGRTSNGKSTVINAMLWDKVLPSGIGHTTNCFLRVGGTDGHEAFLLTEGSEEKKSVKTVNQLAHALHQDEQLHAGSMVSVMWPNSKCPLLKDDLVLMDSPGIDVTTELDSWIDKFCLDADVFVLVANSESTLMQTEKQFFHKVSERLSRPNIFILNNRWDASASEPEYMEEVRRQHMERCTSFLVDELGVVDRAQAGDRIFFVSAKEVLSARVQKAQGMPEGGGALAEGFQVRMFEFQNFERQFEECISQSAVKTKFEQHTVRAKQIAEAVRLIMDSLHIAAQEQRVYCLEMREERQDRLRFIDKQLELLAQDYKLRIKQITEEVERQVSTAMAEEIRRLSVLVDEYQMDFHPSPVVLKVYKNELHRHIEEGLGRNLSDRCSTAIASSLQTMQQDMIDGLKPLLPVSMRNQIDMLVPRQCFSLSYDLNCDKLCADFQEDIEFHFSLGWTMLVNRFLGPKNSRRALLGYSDQVQRPLPLTPANPSMPPLPQSSLTQEELMVSMVTGLASLTSRTSMGILVVGGVVWKAVGWRLIALSFGLYGLLYVYERLTWTTKAKERAFKRQFVEYASEKLQLIISYTGSNCSHQVQQELSGTFAHLCQQVDITRDNLEQEIAAMNKKVEALDSLQSRAKLLRNKAGWLDSELNMFTHQYLQPSR
notes: mitofusin-2 (MFN2), endogenous in mouse embryonic fibroblasts, detected with an anti-MFN2 antibody; source: endogenous, mitochondria isolated from MEFs, digitonin lysate
Broadly, the stoichiometry N is the number of molecules, sites or subunits per partner or assembly. As to B3, the “stoichiometry N” value in data set [2] was determined as 2.
